B1: glmS ribozyme (parent)
chain: AUAAAAGCGCCAGAACUACAGAAAUGUAGUUGACGAGGAGGAGGUUUAUCGAAUUUUCGGCGGAUGCCUCCAAA

Common to all, as to conditions: with glucosamine-6-phosphate
The variants in data set [1] derive from B1. The data set is described as follows: self-cleavage kobs at 40 uM GlcN6P; higher = faster cleavage; RNA array. Summed up:
(§1)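 A hybridised Cy3 probe tracked barcoded ribozyme variants, transcribed in situ by E. coli RNA polymerase on sequenced MiSeq chips, at 37 °C. The variants received 40 μM to 10 mM glucosamine-6-phosphate in HEPES/KCl/Mg(OAc)2 buffer. kobs came from decay fits and kcat and KM from weighted Michaelis–Menten fits.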

In data set [2] the parent is B1. The data set is described as follows: self-cleavage kobs at 160 uM GlcN6P; higher = faster cleavage; RNA array. Summed up:
as §1

The variants in data set [3] derive from B1. The data set is described as follows: self-cleavage kobs at 640 uM GlcN6P; higher = faster cleavage; RNA array. Summed up: as §1
In data set [4] the parent is B1. The data set can be described thus: self-cleavage kobs at 10000 uM GlcN6P; higher = faster cleavage; RNA array. Summed up:
as §1

Data set [5] covers variants of B1. The data set is described as follows: self-cleavage kobs at 2500 uM GlcN6P; higher = faster cleavage; RNA array. Summed up:
as §1

± gives the standard error. Fewer inactive variants are shown than the library holds.

Regarding A6U C34U, the “self-cleavage kobs at 40 uM GlcN6P” value with glucosamine-6-phosphate [1] was under 1e-05 s⁻¹. The “self-cleavage kobs at 160 uM GlcN6P” value with glucosamine-6-phosphate [2] was under 1e-05 s⁻¹. The “self-cleavage kobs at 640 uM GlcN6P” value with glucosamine-6-phosphate [3] is under 1e-05 s⁻¹. Also, the “self-cleavage kobs at 10000 uM GlcN6P” value with glucosamine-6-phosphate [4] was under 1e-05 s⁻¹.
Consider A14G G37A G63U, for which the “self-cleavage kobs at 40 uM GlcN6P” value with glucosamine-6-phosphate [1] is under 1e-05 s⁻¹. For the same variant, in the data set with glucosamine-6-phosphate [4], the “self-cleavage kobs at 10000 uM GlcN6P” value is under 1e-05 s⁻¹.
For C8U C50U C58G C61U C67U C68G, in the data set with glucosamine-6-phosphate [1], the “self-cleavage kobs at 40 uM GlcN6P” value is 0.000528 ± 0.0001 s⁻¹. In the data set with glucosamine-6-phosphate [4], the “self-cleavage kobs at 10000 uM GlcN6P” value was determined as 0.00105 ± 0.00018 s⁻¹.
With C11A G60U, the “self-cleavage kobs at 40 uM GlcN6P” value with glucosamine-6-phosphate [1] was under 1e-05 s⁻¹. Also, the “self-cleavage kobs at 160 uM GlcN6P” value with glucosamine-6-phosphate [2] was under 1e-05 s⁻¹. The “self-cleavage kobs at 640 uM GlcN6P” value with glucosamine-6-phosphate [3] was under 1e-05 s⁻¹. The “self-cleavage kobs at 2500 uM GlcN6P” value with glucosamine-6-phosphate [5] is under 1e-05 s⁻¹. Further, in the data set with glucosamine-6-phosphate [4], the “self-cleavage kobs at 10000 uM GlcN6P” value was under 1e-05 s⁻¹.
In the case of U49G C50A, the “self-cleavage kobs at 40 uM GlcN6P” value in the data set with glucosamine-6-phosphate [1] was under 1e-05 s⁻¹. Besides, in the data set with glucosamine-6-phosphate [2], the “self-cleavage kobs at 160 uM GlcN6P” value was under 1e-05 s⁻¹.
As to G9U A33C A36C U46C C68G, the “self-cleavage kobs at 40 uM GlcN6P” value with glucosamine-6-phosphate [1] was under 1e-05 s⁻¹. The “self-cleavage kobs at 10000 uM GlcN6P” value with glucosamine-6-phosphate [4] is under 1e-05 s⁻¹.
C16G U30G C61G: the “self-cleavage kobs at 40 uM GlcN6P” value with glucosamine-6-phosphate [1] was under 1e-05 s⁻¹. For the same variant, the “self-cleavage kobs at 10000 uM GlcN6P” value with glucosamine-6-phosphate [4] is under 1e-05 s⁻¹.
In the case of G9C G63C, in the data set with glucosamine-6-phosphate [1], the “self-cleavage kobs at 40 uM GlcN6P” value was under 1e-05 s⁻¹. Besides, in the data set with glucosamine-6-phosphate [2], the “self-cleavage kobs at 160 uM GlcN6P” value was under 1e-05 s⁻¹. Further, the “self-cleavage kobs at 640 uM GlcN6P” value in the data set with glucosamine-6-phosphate [3] is under 1e-05 s⁻¹. Moreover, the “self-cleavage kobs at 2500 uM GlcN6P” value with glucosamine-6-phosphate [5] was under 1e-05 s⁻¹.
For C8A C10A C34U G60A, the “self-cleavage kobs at 40 uM GlcN6P” value with glucosamine-6-phosphate [1] is under 1e-05 s⁻¹.
With A6G A48C, the “self-cleavage kobs at 40 uM GlcN6P” value with glucosamine-6-phosphate [1] is under 1e-05 s⁻¹. Also, in the data set with glucosamine-6-phosphate [3], the “self-cleavage kobs at 640 uM GlcN6P” value is under 1e-05 s⁻¹. For the same variant, in the data set with glucosamine-6-phosphate [4], the “self-cleavage kobs at 10000 uM GlcN6P” value was under 1e-05 s⁻¹.
Turning to A14G C50G C68U U69A C71G, the “self-cleavage kobs at 40 uM GlcN6P” value with glucosamine-6-phosphate [1] came to 0.000105 ± 1.7e-05 s⁻¹. In addition, in the data set with glucosamine-6-phosphate [5], the “self-cleavage kobs at 2500 uM GlcN6P” value was determined as 0.000379 ± 8.1e-05 s⁻¹. For the same variant, the “self-cleavage kobs at 10000 uM GlcN6P” value in the data set with glucosamine-6-phosphate [4] was found to be 0.000199 ± 5.1e-05 s⁻¹.
In the case of A52U G62A, in the data set with glucosamine-6-phosphate [1], the “self-cleavage kobs at 40 uM GlcN6P” value is under 1e-05 s⁻¹. For the same variant, the “self-cleavage kobs at 640 uM GlcN6P” value with glucosamine-6-phosphate [3] is under 1e-05 s⁻¹. The “self-cleavage kobs at 2500 uM GlcN6P” value with glucosamine-6-phosphate [5] was under 1e-05 s⁻¹. Further, the “self-cleavage kobs at 10000 uM GlcN6P” value with glucosamine-6-phosphate [4] is under 1e-05 s⁻¹.
In the case of G35C G62A, the “self-cleavage kobs at 40 uM GlcN6P” value in the data set with glucosamine-6-phosphate [1] was under 1e-05 s⁻¹. For the same variant, the “self-cleavage kobs at 160 uM GlcN6P” value with glucosamine-6-phosphate [2] was under 1e-05 s⁻¹. Also, the “self-cleavage kobs at 640 uM GlcN6P” value with glucosamine-6-phosphate [3] is under 1e-05 s⁻¹. For the same variant, in the data set with glucosamine-6-phosphate [5], the “self-cleavage kobs at 2500 uM GlcN6P” value was under 1e-05 s⁻¹. The “self-cleavage kobs at 10000 uM GlcN6P” value with glucosamine-6-phosphate [4] is under 1e-05 s⁻¹.
As for A36G G62U, the “self-cleavage kobs at 40 uM GlcN6P” value in the data set with glucosamine-6-phosphate [1] is under 1e-05 s⁻¹. The “self-cleavage kobs at 640 uM GlcN6P” value in the data set with glucosamine-6-phosphate [3] is under 1e-05 s⁻¹. The “self-cleavage kobs at 2500 uM GlcN6P” value with glucosamine-6-phosphate [5] was under 1e-05 s⁻¹. The “self-cleavage kobs at 10000 uM GlcN6P” value with glucosamine-6-phosphate [4] is under 1e-05 s⁻¹.
With A36U U45A C71G, the “self-cleavage kobs at 40 uM GlcN6P” value with glucosamine-6-phosphate [1] was under 1e-05 s⁻¹.
Still for that read-out and setting: the value for C10A C61A C67G was 4.33e-05 ± 1.9e-05 s⁻¹.
On to G41C U49A, for which, in the data set with glucosamine-6-phosphate [1], the “self-cleavage kobs at 40 uM GlcN6P” value is under 1e-05 s⁻¹. In addition, the “self-cleavage kobs at 160 uM GlcN6P” value with glucosamine-6-phosphate [2] was under 1e-05 s⁻¹. In the data set with glucosamine-6-phosphate [3], the “self-cleavage kobs at 640 uM GlcN6P” value was under 1e-05 s⁻¹. In addition, the “self-cleavage kobs at 2500 uM GlcN6P” value with glucosamine-6-phosphate [5] was under 1e-05 s⁻¹.
Consider U55C G62A, for which, in the data set with glucosamine-6-phosphate [1], the “self-cleavage kobs at 40 uM GlcN6P” value is under 1e-05 s⁻¹. The “self-cleavage kobs at 160 uM GlcN6P” value with glucosamine-6-phosphate [2] is under 1e-05 s⁻¹. For the same variant, in the data set with glucosamine-6-phosphate [3], the “self-cleavage kobs at 640 uM GlcN6P” value was under 1e-05 s⁻¹. The “self-cleavage kobs at 2500 uM GlcN6P” value in the data set with glucosamine-6-phosphate [5] was under 1e-05 s⁻¹. Also, in the data set with glucosamine-6-phosphate [4], the “self-cleavage kobs at 10000 uM GlcN6P” value was under 1e-05 s⁻¹.
As to A6U G7U A15U U30G G40A, in the data set with glucosamine-6-phosphate [1], the “self-cleavage kobs at 40 uM GlcN6P” value was under 1e-05 s⁻¹. The “self-cleavage kobs at 10000 uM GlcN6P” value in the data set with glucosamine-6-phosphate [4] was under 1e-05 s⁻¹.
As for C10A U30C, the “self-cleavage kobs at 40 uM GlcN6P” value in the data set with glucosamine-6-phosphate [1] is under 1e-05 s⁻¹. Besides, the “self-cleavage kobs at 160 uM GlcN6P” value with glucosamine-6-phosphate [2] is under 1e-05 s⁻¹. In the data set with glucosamine-6-phosphate [3], the “self-cleavage kobs at 640 uM GlcN6P” value is under 1e-05 s⁻¹. Besides, the “self-cleavage kobs at 2500 uM GlcN6P” value in the data set with glucosamine-6-phosphate [5] is under 1e-05 s⁻¹. Also, the “self-cleavage kobs at 10000 uM GlcN6P” value with glucosamine-6-phosphate [4] was under 1e-05 s⁻¹.
Turning to G7U C10U G13C A52G, the “self-cleavage kobs at 40 uM GlcN6P” value with glucosamine-6-phosphate [1] is under 1e-05 s⁻¹.
C8U G35C: the “self-cleavage kobs at 40 uM GlcN6P” value with glucosamine-6-phosphate [1] was under 1e-05 s⁻¹. The “self-cleavage kobs at 160 uM GlcN6P” value in the data set with glucosamine-6-phosphate [2] is under 1e-05 s⁻¹. In addition, in the data set with glucosamine-6-phosphate [5], the “self-cleavage kobs at 2500 uM GlcN6P” value is under 1e-05 s⁻¹. Further, the “self-cleavage kobs at 10000 uM GlcN6P” value in the data set with glucosamine-6-phosphate [4] was under 1e-05 s⁻¹.
